From the Immune Epitope Database (IEDB) come the findings set out here.

A value given as a limit tells only on which side of the number the result lay.

Assay [1] concerns the target HLA-B*15:01. In words: IEDB peptide-MHC binding, purified MHC/competitive/radioactivity; filed as Kd, often an IC50 or EC50 that approximates it; ≥ and ≤ were set here for values at or beyond the usual limits of such assays.
For assay [2], the target named is HLA-A*30:01. Described as above. To be noted: source organism: Vaccinia virus WR.
The target in assay [3] is HLA-B*15:03. The assay is described as above. The following applies: source organism: Vaccinia virus WR.
Assay [4] addresses HLA-A*32:01. Described as above. To be noted: source organism: Vaccinia virus WR.
Assay [5] deals with HLA-B*08:01. The description is as above. The following applies: source organism: Vaccinia virus WR.
In assay [6] the target is HLA-B*53:01. Described as above. The following applies: source organism: Dengue virus 1 Brazil/97-11/1997.
For assay [7], the target named is HLA-B*58:01. Described as above.
The target of assay [8] is HLA-B*15:01. In words: IEDB peptide-MHC binding, purified MHC/competitive/fluorescence; filed as Kd, often an IC50 or EC50 that approximates it; ≥ and ≤ were set here for values at or beyond the usual limits of such assays. To be noted: source organism: Shigella boydii CDC 3083-94.
The target of assay [9] is HLA-A*02:01. Described as above. The following applies: source organism: Shigella boydii CDC 3083-94.
Assay [10] addresses HLA-A*03:01. Put plainly: IEDB peptide-MHC binding, purified MHC/direct/fluorescence; filed as Kd, often an IC50 or EC50 that approximates it; ≥ and ≤ were set here for values at or beyond the usual limits of such assays.
Assay [11] deals with HLA-A*11:01. The description is as above.
The target in assay [12] is HLA-A*31:01. In words: IEDB peptide-MHC binding, purified MHC/competitive/fluorescence; filed as Kd, often an IC50 or EC50 that approximates it; ≥ and ≤ were set here for values at or beyond the usual limits of such assays.
Assay [13] addresses HLA-A*24:02. In words: IEDB peptide-MHC binding, purified MHC/competitive/fluorescence; ≥ and ≤ were set here for values at or beyond the usual limits of such assays. The following applies: source organism: Vaccinia virus WR.
In assay [14] the target is HLA-A*11:01. Described as above. The following applies: source organism: Vaccinia virus WR.
Assay [15] has as its target HLA-A*02:01. The description is as above. To be noted: source organism: Vaccinia virus WR.
Assay [16] addresses HLA-A*01:01. Put plainly: IEDB peptide-MHC binding, purified MHC/direct/fluorescence; filed as Kd, often an IC50 or EC50 that approximates it; ≥ and ≤ were set here for values at or beyond the usual limits of such assays. The following applies: source organism: West Nile virus.
Assay [17] has as its target HLA-B*44:02. Described as above. To be noted: source organism: West Nile virus.
The target in assay [18] is HLA-A*29:02. The description is as above. The following applies: source organism: West Nile virus.
The target of assay [19] is HLA-A*69:01. Described as above. The following applies: source organism: West Nile virus.
Assay [20] has as its target HLA-B*57:01. Described as above. To be noted: source organism: West Nile virus.
Assay [21] deals with HLA-B*18:01. Described as above. The following applies: source organism: West Nile virus.
Assay [22] addresses HLA-B*27:05. The description is as above. To be noted: source organism: West Nile virus.
The target of assay [23] is HLA-B*40:01. The assay is described as above. The following applies: source organism: West Nile virus.
The target in assay [24] is HLA-B*46:01. The description is as above. The following applies: source organism: West Nile virus.
Assay [25] has as its target HLA-B*48:01. The assay is described as above. The following applies: source organism: West Nile virus.
For assay [26], the target named is HLA-A*26:01. In words: IEDB peptide-MHC binding, purified MHC/competitive/fluorescence; filed as Kd, often an IC50 or EC50 that approximates it; ≥ and ≤ were set here for values at or beyond the usual limits of such assays. To be noted: source organism: Mammarenavirus lassaense.
Assay [27] deals with HLA-A*03:01. The description is as above.
Setting [28] is: source organism: Vaccinia virus WR.
Where [29] appears, read: source organism: Dengue virus 1 Brazil/97-11/1997.
The mark [30] stands for this setting: source organism: West Nile virus.
The mark [31] stands for this setting: source organism: Escherichia coli 536.

As a reminder, the Kd is the concentration at which binding is half-saturated. On to IISSSTLYF, for which the dissociation constant Kd in assay [1] (source organism: Vaccinia virus Copenhagen) was 1.06 nM.

On to KMTRVFNKF, for which the Kd in assay [1] (setting [28]) is 7560 nM; in [2], 15100 nM; in [3] it was 0.431 nM; in assay [4] it was 10600 nM; in assay [5] it was 10600 nM.

Take LLKICIKYF: in assay [1] (setting [28]), the Kd amounted to 5230 nM.

Consider YLFNAIETM, for which the Kd in assay [1] (setting [28]) worked out at 1.41 nM.

For FVTNEVHTW, the Kd in assay [6] was determined as 61.2 nM; in assay [7] (setting [29]), 29.9 nM.

As for FTFEWNGRI, the Kd in [8] was no less than 20000 nM; in assay [9] it was 14.5 nM.

VIGFLALAK: the Kd is 232 nM in [10] (source organism: Amur virus), 12.6 nM in assay [11] (source organism: Amur virus) and no less than 20000 nM in assay [12] (source organism: Orthohantavirus dobravaense).

Usually IC50 stands for the midpoint of a concentration-inhibition curve. Consider FYTRVLKPS, for which the half-maximal inhibitory concentration (IC50) in assay [13] is 7110 nM; in [14], no less than 179000 nM; in assay [15], no less than 110000 nM.

For KIRNRIERL, the Kd in [16], in assay [10] (setting [30]), in assay [17], in assay [18], in assay [11] (setting [30]) and in assay [19] was no less than 20000 nM throughout. Further, the Kd in assay [20], in [21], in [22], in assay [23], in assay [24] and in assay [25] was no less than 20000 nM throughout.

In the case of RKYGCGNMF, the Kd in assay [3] is 1.25 nM.

Turning to FQSMHFTDM, the Kd came out at 5.12 nM in [3] and 84.4 nM in assay [5].

The sequence DVADLFPAQ registered a Kd in assay [26] of 1780 nM.

LMVSGPNVV: the Kd in [3] is 3.8 nM.

Turning to AVVRFRTHF, the Kd in assay [3] was found to be 191 nM.

For the sequence TAAVLLLVTH, the Kd in [7] (source organism: Dengue virus 3 Singapore/8120/1995) was 304 nM.

Turning to YLHYYRIIR, the dissociation constant (Kd) was no less than 20000 nM in assay [10] (source organism: Mycobacterium tuberculosis) and 245 nM in assay [12] (source organism: Mycobacterium tuberculosis H37Rv).

Consider VTVVAVPLR, for which the equilibrium dissociation constant (Kd) in assay [27] (setting [31]) is no less than 20000 nM; in [12] (setting [31]), 107 nM.

As for VLALLAFFR, the Kd in assay [27] (setting [30]) was 160 nM; in assay [12] (setting [30]) it was 1080 nM.

Regarding WASVKKDLIS, the Kd in assay [7] (setting [29]) worked out at 81.3 nM.

Regarding FMASPENVI, the Kd in [3] was determined as 6.38 nM.

For the sequence ASAIVLEFF, in assay [7] (source organism: Dengue virus 3 Martinique/1243/1999), the equilibrium dissociation constant (Kd) stood at 28.2 nM.

Regarding ISTKLSCHY, the Kd in assay [1] (setting [28]) came to 17.5 nM.
